Experiments:
[1] = biological target: T1, huFcRn (human, UniProt P55899 24-297; P61769 21-119, limits assumed); experiment: huFcRn affinity chromatography, pH gradient elution
T1 construct: also called human neonatal Fc receptor

[2] = biological target: T2, recombinant human PAD2 (biotinylated) (human, UniProt Q9Y2J8 1-665, enzymatically biotinylated on an Avi-tag); experiment: SPR (Biacore), biotinylated PAD2 on CM5/C1-streptavidin, Fab flowed over; average
T2 construct: not shown: Avi-tag (and any other tags); said to be at the C-terminus in this earlier assay

[3] = biological target: T3, recombinant mouse PAD2 (biotinylated) (mouse, UniProt Q08642 1-673, enzymatically biotinylated on an Avi-tag); experiment: as above
T3 construct: not shown: Avi-tag (and any other tags); said to be at the C-terminus in this earlier assay

[4] = biological target: T4, recombinant human PAD2 (human, UniProt Q9Y2J8 1-665, enzymatically biotinylated on an Avi-tag); experiment: SPR (Biacore 8K), biotinylated PAD2 on streptavidin chip, Fab flowed over
T4 construct: Recombinant, biotinylated on an Avi-tag and captured on streptavidin; also called peptidyl arginine deiminase 2

[5] = biological target: T5, recombinant mouse PAD2 (mouse, UniProt Q08642 1-673, enzymatically biotinylated on an Avi-tag); experiment: as above
T5 construct: Recombinant, biotinylated on an Avi-tag
T5 sequence (Q08642 whole entry): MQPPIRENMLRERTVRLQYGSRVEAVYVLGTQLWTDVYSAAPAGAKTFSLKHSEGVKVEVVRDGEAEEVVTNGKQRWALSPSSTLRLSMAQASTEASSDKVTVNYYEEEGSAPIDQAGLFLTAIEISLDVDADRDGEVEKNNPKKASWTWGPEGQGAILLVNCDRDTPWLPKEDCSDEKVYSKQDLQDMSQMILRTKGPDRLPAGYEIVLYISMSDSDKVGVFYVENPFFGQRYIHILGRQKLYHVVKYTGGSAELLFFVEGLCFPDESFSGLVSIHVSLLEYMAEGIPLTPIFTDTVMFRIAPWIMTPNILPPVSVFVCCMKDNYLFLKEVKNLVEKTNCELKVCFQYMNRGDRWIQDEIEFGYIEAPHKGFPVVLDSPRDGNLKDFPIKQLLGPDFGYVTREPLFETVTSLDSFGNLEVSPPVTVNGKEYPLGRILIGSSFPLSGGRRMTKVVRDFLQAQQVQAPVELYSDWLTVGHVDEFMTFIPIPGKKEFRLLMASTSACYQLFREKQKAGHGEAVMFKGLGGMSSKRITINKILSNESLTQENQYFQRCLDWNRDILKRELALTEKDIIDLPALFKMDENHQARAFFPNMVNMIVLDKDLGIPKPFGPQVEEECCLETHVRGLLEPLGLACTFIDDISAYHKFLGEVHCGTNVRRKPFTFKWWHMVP

T1 sequence (P55899 24-297 limits assumed, chain 1 of 2): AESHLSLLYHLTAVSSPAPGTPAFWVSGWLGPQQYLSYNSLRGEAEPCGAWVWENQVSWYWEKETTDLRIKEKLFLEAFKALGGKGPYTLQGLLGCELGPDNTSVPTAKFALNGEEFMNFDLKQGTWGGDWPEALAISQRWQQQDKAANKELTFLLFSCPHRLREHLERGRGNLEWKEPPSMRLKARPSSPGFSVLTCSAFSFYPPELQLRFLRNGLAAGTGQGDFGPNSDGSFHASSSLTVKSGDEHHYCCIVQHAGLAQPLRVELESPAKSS
T1 sequence (P61769 21-119 limits assumed, chain 2 of 2): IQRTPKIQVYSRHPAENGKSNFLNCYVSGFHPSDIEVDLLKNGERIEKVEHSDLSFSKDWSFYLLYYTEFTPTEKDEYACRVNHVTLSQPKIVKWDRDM
T4 sequence (Q9Y2J8 whole entry): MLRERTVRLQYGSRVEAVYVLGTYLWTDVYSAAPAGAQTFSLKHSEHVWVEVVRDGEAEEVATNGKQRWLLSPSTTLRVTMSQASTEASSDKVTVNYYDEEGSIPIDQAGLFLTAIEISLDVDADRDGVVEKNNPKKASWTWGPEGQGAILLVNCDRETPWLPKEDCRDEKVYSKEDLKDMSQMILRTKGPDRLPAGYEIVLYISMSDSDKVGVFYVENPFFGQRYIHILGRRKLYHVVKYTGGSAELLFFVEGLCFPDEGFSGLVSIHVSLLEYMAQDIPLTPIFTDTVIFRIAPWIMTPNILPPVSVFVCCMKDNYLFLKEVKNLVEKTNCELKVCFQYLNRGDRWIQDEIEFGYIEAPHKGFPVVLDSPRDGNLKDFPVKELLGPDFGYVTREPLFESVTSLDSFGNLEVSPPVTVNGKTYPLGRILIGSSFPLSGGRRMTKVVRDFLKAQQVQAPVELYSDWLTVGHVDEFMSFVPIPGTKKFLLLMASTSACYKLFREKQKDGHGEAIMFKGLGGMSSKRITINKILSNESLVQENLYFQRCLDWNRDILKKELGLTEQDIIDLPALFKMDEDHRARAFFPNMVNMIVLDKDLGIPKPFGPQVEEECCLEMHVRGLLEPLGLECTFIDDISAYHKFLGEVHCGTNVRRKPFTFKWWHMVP
T2 sequence (Q9Y2J8 whole entry): as above
T3 sequence (Q08642 whole entry): as the sequence (Q08642 whole entry) above

Row | Binder | Kd [2] | koff [2] | kon [2] | Kd [4] | further results
1 | Clone 09 (Bis3, TM-YTE; Fab anti-PAD4, scFv anti-PAD2) (bispecific antibody, human IgG1, lambda, Bivalent bispecific IgG-HC-scFv; also called PAD240009) heavy: not shown light: QSALTQPRSVSGSPGQSVTISCTGTSGDVGRYSHVSWYQQHPGKAPKLIIYNVYERPSGVPDRFSGSKSGNTASLTISGLQAEDEADYYCSSHSRSSTPVLFGGGTKLTVLGQPKAAPSVTLFPPSSEELQANKATLVCLISDFYPGAVTVAWKADSSPVKAGVETTTPSKQSNNKYAASSYLSLTPEQWKSHRSYSCQVTHEGSTVEKTVAPTECS |  |  |  |  | HPLC retention [1]: 23.3 min; Relative retention [1]: 0.828
2 | Clone 10 (Bis3, TM-YTE; Fab anti-PAD2, scFv anti-PAD4) (bispecific antibody, human IgG1, lambda, Bivalent bispecific IgG-HC-scFv; also called PAD240010) heavy: not shown light: SYVLTQPPSVSVSPGQTASITCSGDKVGDKYVSWYQQKPGQSPVLVIYQDSQRPSGIPERFSGSNSGNTATLTISGTQAMDEADYYCQTWAPDVLLFGSGTKVTVLGQPKAAPSVTLFPPSSEELQANKATLVCLISDFYPGAVTVAWKADSSPVKAGVETTTPSKQSNNKYAASSYLSLTPEQWKSHRSYSCQVTHEGSTVEKTVAPTECS |  |  |  |  | HPLC retention [1]: 22.8 min; Relative retention [1]: 0.753
3 | 141LO0035 hIgG1 pgl-4 (Germlined) Clone 22 (Fab, V domains shown, Anti-PAD2 lead; tested here as Fab) VH: not shown VL: SYVLTQPPSVSVSPGQTASITCSGDKVGDKYVSWYQQKPGQSPVLVIYQDSQRPSGIPERFSGSNSGNTATLTISGTQAMDEADYYCQTWAPDVLLFGSGTKVTVL | 0.218 nM | 0.000221 s⁻¹ | 1.01e+06 M⁻¹ s⁻¹ |  | Kd [3]: 0.794 nM; koff [3]: 0.000766 s⁻¹; kon [3]: 971000 M⁻¹ s⁻¹
4 | 141LO0035 hIgG1 pgl-4 (Clone 22, anti-PAD2) Fab (Fab, V domains shown, Tested as Fab) VH: not shown VL: SYVLTQPPSVSVSPGQTASITCSGDKVGDKYVSWYQQKPGQSPVLVIYQDSQRPSGIPERFSGSNSGNTATLTISGTQAMDEADYYCQTWAPDVLLFGSGTKVTVL |  |  |  | 0.218 nM | Kd [5]: 0.794 nM
5 | 141LO0030 hIgG1 pgl-4 (Germlined) (Fab, V domains shown, Anti-PAD2; tested as Fab) VH: not shown VL: SYVLTQPPSVSVSPGQTASITCSGDKVGDKYVSWYQQKPGQSPVLVIYQDSQRPSGIPERFSGSNSGNTATLTISGTQAMDEADYYCQTWYDDALTFGSGTKVTVL | 2.14 nM | 0.00101 s⁻¹ | 474000 M⁻¹ s⁻¹ |  | Kd [3]: 13.2 nM; koff [3]: 0.00484 s⁻¹; kon [3]: 378000 M⁻¹ s⁻¹
6 | 141LO0039 hIgG1 pgl-4 (anti-PAD2) Fab (Fab, V domains shown, Tested as Fab) VH: not shown VL: SYVLTQPPSVSVSPGQTASITCSGDKVGDKYVSWYQQKPGQSPVLVIYQDSQRPSGIPERFSGSNSGNTATLTISGTQAMDEADYYCHTYAEDEYVFGSGTKVTVL |  |  |  | 3.9 nM | Kd [5]: 17.8 nM
7 | 141LO0039 hIgG1 pgl-4 (Germlined) (Fab, V domains shown, Anti-PAD2; tested as Fab) VH: not shown VL: SYVLTQPPSVSVSPGQTASITCSGDKVGDKYVSWYQQKPGQSPVLVIYQDSQRPSGIPERFSGSNSGNTATLTISGTQAMDEADYYCHTYAEDEYVFGSGTKVTVL | 3.9 nM | 0.00245 s⁻¹ | 629000 M⁻¹ s⁻¹ |  | Kd [3]: 17.8 nM; koff [3]: 0.0125 s⁻¹; kon [3]: 722000 M⁻¹ s⁻¹
8 | 141LO0030 hIgG1 pgl-4 (anti-PAD2) Fab (Fab, V domains shown, Tested as Fab) VH: not shown VL: SYVLTQPPSVSVSPGQTASITCSGDKVGDKYVSWYQQKPGQSPVLVIYQDSQRPSGIPERFSGSNSGNTATLTISGTQAMDEADYYCQTWYDDALTFGSGTKVTVL |  |  |  | 2.14 nM | Kd [5]: 13.2 nM
9 | 141LO0035 hIgG1 ngl-2 (anti-PAD2) Fab (Fab, V domains shown, Tested as Fab) VH: not shown VL: SYVLTQPPSVSVSPGQTASITCSGDKVGDKYVSWYQQKPGQAPVLVMYQDSQRPSGIPERISGSNSGNTATLTISGTQAVDEAEYYCQTWAPDVLLFGSGTKVTVL |  |  |  | 0.185 nM | Kd [5]: 0.571 nM
10 | PAD40141 hIgG1 ngl-2 (Parent) (Fab, V domains shown, Anti-PAD2; tested as Fab) VH: not shown VL: SYVLTQPPSVSVSPGQTASITCSGDKVGDKYVSWYQQKPGQAPVLVMYQDSQRPSGIPERISGSNSGNTATLTISGTQAVDEAEYYCQTWDSNEYVFGSGTKVTVL | 261 nM | 0.111 s⁻¹ | 445000 M⁻¹ s⁻¹ |  | 
11 | PAD40141 hIgG1 ngl-2 (anti-PAD2, parent) Fab (Fab, V domains shown, Tested as Fab) VH: not shown VL: SYVLTQPPSVSVSPGQTASITCSGDKVGDKYVSWYQQKPGQAPVLVMYQDSQRPSGIPERISGSNSGNTATLTISGTQAVDEAEYYCQTWDSNEYVFGSGTKVTVL |  |  |  | 261 nM | 
12 | 141LO0055 hIgG1 ngl-2 (Fab, V domains shown, Anti-PAD2; tested as Fab) VH: not shown VL: SYVLTQPPSVSVSPGQTASITCSGDKVGDKYVSWYQQKPGQAPVLVMYQDSQRPSGIPERISGSNSGNTATLTISGTQAVDEAEYYCQSENAVEYVFGSGTKVTVL | 0.364 nM | 0.000675 s⁻¹ | 1.85e+06 M⁻¹ s⁻¹ |  | 
13 | 141LO0002 hIgG1 pgl-4 (Germlined) (Fab, V domains shown) VH: not shown VL: SYVLTQPPSVSVSPGQTASITCSGDKVGDKYVSWYQQKPGQSPVLVIYQDSQRPSGIPERFSGSNSGNTATLTISGTQAMDEADYYCEVGVDYEYVFGSGTKVTVL | 2.78 nM | 0.00314 s⁻¹ | 1.13e+06 M⁻¹ s⁻¹ |  | Kd [3]: 38.5 nM; koff [3]: 0.0256 s⁻¹; kon [3]: 692000 M⁻¹ s⁻¹
14 | 141LO0039 hIgG1 ngl-2 (Fab, V domains shown, Anti-PAD2; tested as Fab) VH: not shown VL: SYVLTQPPSVSVSPGQTASITCSGDKVGDKYVSWYQQKPGQAPVLVMYQDSQRPSGIPERISGSNSGNTATLTISGTQAVDEAEYYCHTYAEDEYVFGSGTKVTVL | 1.87 nM | 0.00157 s⁻¹ | 840000 M⁻¹ s⁻¹ |  | 
15 | 141LO0030 hIgG1 ngl-2 (anti-PAD2) Fab (Fab, V domains shown, Tested as Fab) VH: not shown VL: SYVLTQPPSVSVSPGQTASITCSGDKVGDKYVSWYQQKPGQAPVLVMYQDSQRPSGIPERISGSNSGNTATLTISGTQAVDEAEYYCQTWYDDALTFGSGTKVTVL |  |  |  | 0.949 nM | 
16 | 141LO0002 hIgG1 pgl-3 (Germlined) (Fab, V domains shown, Anti-PAD2; tested as Fab) VH: not shown VL: SYVLTQPPSVSVSPGQTASITCSGDKVGDKYVSWYQQKPGQSPVLVIYQDSQRPSGIPERFSGSNSGNTATLTISGTQAMDEADYYCEVGVDYEYVFGSGTKVTVL | 3.31 nM | 0.0035 s⁻¹ | 1.07e+06 M⁻¹ s⁻¹ |  | Kd [3]: 33.8 nM; koff [3]: 0.026 s⁻¹; kon [3]: 777000 M⁻¹ s⁻¹
17 | 141LO0002 hIgG1 ngl-2 (anti-PAD2) Fab (Fab, V domains shown) VH: not shown VL: SYVLTQPPSVSVSPGQTASITCSGDKVGDKYVSWYQQKPGQAPVLVMYQDSQRPSGIPERISGSNSGNTATLTISGTQAVDEAEYYCEVGVDYEYVFGSGTKVTVL |  |  |  | 3.78 nM | 
18 | 141LO0002 hIgG1 ngl-2 (Fab, V domains shown) VH: not shown VL: SYVLTQPPSVSVSPGQTASITCSGDKVGDKYVSWYQQKPGQAPVLVMYQDSQRPSGIPERISGSNSGNTATLTISGTQAVDEAEYYCEVGVDYEYVFGSGTKVTVL | 3.78 nM | 0.00328 s⁻¹ | 880000 M⁻¹ s⁻¹ |  | 
19 | 141LO0002 hIgG1 pgl-3 (anti-PAD2) Fab (Fab, V domains shown, Tested as Fab) VH: not shown VL: SYVLTQPPSVSVSPGQTASITCSGDKVGDKYVSWYQQKPGQSPVLVIYQDSQRPSGIPERFSGSNSGNTATLTISGTQAMDEADYYCEVGVDYEYVFGSGTKVTVL |  |  |  | 3.31 nM | Kd [5]: 33.8 nM
20 | 141LO0035 hIgG1 ngl-2 (Fab, V domains shown, Anti-PAD2; tested as Fab) VH: not shown VL: SYVLTQPPSVSVSPGQTASITCSGDKVGDKYVSWYQQKPGQAPVLVMYQDSQRPSGIPERISGSNSGNTATLTISGTQAVDEAEYYCQTWAPDVLLFGSGTKVTVL | 0.185 nM | 0.000192 s⁻¹ | 1.04e+06 M⁻¹ s⁻¹ |  | Kd [3]: 0.571 nM; koff [3]: 0.000646 s⁻¹; kon [3]: 1.14e+06 M⁻¹ s⁻¹
21 | 141LO0039 hIgG1 ngl-2 (anti-PAD2) Fab (Fab, V domains shown, Tested as Fab) VH: not shown VL: SYVLTQPPSVSVSPGQTASITCSGDKVGDKYVSWYQQKPGQAPVLVMYQDSQRPSGIPERISGSNSGNTATLTISGTQAVDEAEYYCHTYAEDEYVFGSGTKVTVL |  |  |  | 1.87 nM | 
22 | 141LO0055 hIgG1 ngl-2 (anti-PAD2) Fab (Fab, V domains shown, Tested as Fab) VH: not shown VL: SYVLTQPPSVSVSPGQTASITCSGDKVGDKYVSWYQQKPGQAPVLVMYQDSQRPSGIPERISGSNSGNTATLTISGTQAVDEAEYYCQSENAVEYVFGSGTKVTVL |  |  |  | 0.364 nM | 
23 | 141LO0030 hIgG1 ngl-2 (Fab, V domains shown, Anti-PAD2; tested as Fab) VH: not shown VL: SYVLTQPPSVSVSPGQTASITCSGDKVGDKYVSWYQQKPGQAPVLVMYQDSQRPSGIPERISGSNSGNTATLTISGTQAVDEAEYYCQTWYDDALTFGSGTKVTVL | 0.949 nM | 0.000613 s⁻¹ | 647000 M⁻¹ s⁻¹ |  | 
24 | PAD40175 hIgG1 ngl-2 (Fab, V domains shown, Anti-PAD2; tested as Fab) VH: not shown VL: QAVLTQPSSVSVAPGKTATITCGGDNIGSKSVHWYQQKPGQAPLLVIFYDTDRPSGVPERFSGSNSGNTATLTISRVEAGDEADYYCQVWDSNGDHYVFGTGTKLTVL | 6.73 nM | 0.000629 s⁻¹ | 93000 M⁻¹ s⁻¹ |  | Kd [3]: 2.35 nM; koff [3]: 0.000288 s⁻¹; kon [3]: 123000 M⁻¹ s⁻¹
